Experiment [1] addresses T1, B cell-activating factor (BAFF) (UniProt Q9Y275, biotin (NHS-LC-Biotin, 3:1 molar ratio of biotin to protein) in the BLI assay; not biotinylated when coated on ELISA plates).
Target sequence in this assay (Q9Y275 134-285): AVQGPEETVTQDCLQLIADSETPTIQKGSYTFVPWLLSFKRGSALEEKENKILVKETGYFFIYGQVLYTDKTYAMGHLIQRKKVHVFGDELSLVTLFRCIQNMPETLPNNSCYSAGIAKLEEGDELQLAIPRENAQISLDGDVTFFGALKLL
Experiment [2] addresses T1, B cell-activating factor (BAFF). As to the kind of experiment: BLI; Octet RED; biotinylated BAFF (20 ug/mL) loaded on streptavidin biosensors; sdAbs 1.25-20 uM as analyte; PBST (PBS pH 7.4, 0.1% BSA, 0.02% Tween-20); room temperature; association 300 s, dissociation 1500 s; global 1:1 fit; 'relative affinity'. The following applies: both partners purified. Background: In BLI a coated tip is dipped into the sample, and binding shifts an interference pattern.

Experiment [3] shares this target. The experiment in a line: cell-based or functional assay.
For experiment [4] the target is unchanged. The experiment in a line: ELISA; competition ELISA; BAFF (10 ug/mL) coated; sdAb (0-100 ug/mL) mixed with TACI (10 ug/mL), 2 h at 37 C; bound TACI detected with HRP goat anti-human IgG. The settings on record: both partners purified. On the technique in general: An ELISA detects its analyte on a solid surface through an enzyme-linked reagent.
Experiment [5] shares this target. The experiment in a line: ELISA; competition ELISA; BAFF (10 ug/mL) coated; sdAb (0-500 ug/mL) mixed with BCMA (50 ug/mL), 2 h at 37 C; bound BCMA detected with HRP goat anti-human IgG. The settings on record: both partners purified.

B1: baffb2 (VHH)
VHH: HVQLVDSGGGLVQAGGSLRLSCAASGRSFRRYAMAWFRQTPGKEREFVAAISRSGGSTSYADSVKGRFTISRDNVKNTVYLQMNSLKPEDTAIYYCAADRWGSPTDLRLPRELDYWGQGTHVTVSS
On to B1, for which the binding result in experiment [1] was “binds”.

B2: baffb11 (VHH)
VHH: HVQLVDSGGGLVQAGGSLRLSCAASGRTFSSYAMGWFRQAPGKEREFVAAISWSGGRTYYADSVKGRFTISRNNAKNTVYLQMNNLKPEDAAVYYCAARSRASLSGTPLSSPSYYRYWGQGTQVTVSS
As to B2, the binding result in experiment [1] is recorded as “binds”.

B3: baffc6 (VHH)
VHH: HVQLVDSGGGLVQAGGSLRLSCAAPRNTFSRYAMAWYRQAPGKRRESVASISSGGISHYTDSVKGRFTISRDNAKNTVYLQMNSLKPEDSAVYYCAASREWGLLRHRPGYWGQGTQVTVSS
Consider B3, for which the binding result in experiment [1] was “binds”.

B4: bafff4 (VHH)
VHH: HVQLVDSGGGLVQAGGSLRLSCTVSGRTSRYAMAWFRQAPGKGREFVAGVNRSGGRPNYSNSVKGRFTISRDNAKNTVYLQMNGLKPEDTAVYYCAAEDRISQSYEYWGQGTQVTVSS
Consider B4, for which the binding result in experiment [1] was “binds”.

B5: anti-BAFF64 (VHH)
VHH: QVQLVDSGGGLVQAGGSLRLSCVASGALISRRGMGWYRQAPGRQRELVAGISSDGTTNYAQSVEGRFTISRDNAKRSVYLQMNSLKPEDTAVYYCHARTRWKSYWGQGTQVTVSS
notes: Soluble sdAb of about 15 kDa from an immune alpaca library; also called clone 64; anti-BAFF64 sdAb; source: E. coli TG1, periplasm, vector pSJF2, purified (Ni-NTA)
B5: in experiment [2], the Kd (as a rule, the concentration at which binding is half-saturated) was determined as 319 nM; the koff (in general, the rate constant with which the complex falls apart) was 0.000729 s⁻¹; the kon (commonly the second-order rate constant of association) was found to be 2290 M⁻¹ s⁻¹. Moreover, the “inhibitory ratio of BAFF-induced (750 ng/mL) Raji cell proliferation, CCK-8 assay, sdAb 0-100 ug/mL; value at 100 ug/mL” value in experiment [3] was 55%. The “inhibition ratio of TACI binding to BAFF at 100 ug/mL sdAb” value in experiment [4] was found to be 31%.

B6: anti-BAFFG3 (VHH)
VHH: HVQLVDSGGGLVAGGSLRLSCAASGRTFSMSAVAWFRQAPGKEREFVAAISKSSISTYYADSVKGRFTISRDNARNTVNLQMNSLKPEDTAVYYCNSALNGRLPGRHWGQGTQVTVSS
notes: Soluble sdAb of about 15 kDa from an immune alpaca library; also called clone G3; anti-BAFFG3 sdAb; source: E. coli TG1, periplasm, vector pSJF2, purified (Ni-NTA)
Take B6: in experiment [2], the Kd came to 823 nM, the koff amounted to 0.00239 s⁻¹ and the kon was 2900 M⁻¹ s⁻¹. In addition, the “inhibition ratio of BCMA binding to BAFF at 500 ug/mL sdAb” value in experiment [5] came to 33%.

B7: baffh1 (VHH)
VHH: HVQLVDSGGGSVQTGDSLTLSCVQSGRTFRSYAMAWYRQAPGKERELVARISSGYSTNYLDSVKGRFTISRDNDKNTFYLQMNSLRPEDTAVYYCNSALNGRLPGRHWGQGTQVTVSS
As for B7, the binding result in experiment [1] is reported as “binds”.

B8: baff41 (VHH)
VHH: HVQLVDSGGGLVQPGGSLRLSCTASGRTFRDYAMGWFRQAPGKEREFVAAIIGRGASTQYADFVKGRFTISRDNAKNTVYLQMNSLRPEDTAVYYCHAYDPRRNGDYWGQGTQVTVSS
As to B8, the binding result in experiment [1] was “binds”.

B9: anti-BAFF52 (VHH)
VHH: HVQLVDSGGGLVQAGGSLRLSCAASGRSFKNYHMGWFRQAPGKEREFVAAINGRGSRTKYADSVKGRFTISRDNAERTVRLEMNSLKPEDTAVYYCAAGGPEFYRGRLEDYAYWGPGTQVTVSS
notes: Soluble sdAb of about 15 kDa from an immune alpaca library; also called clone 52; anti-BAFF52 sdAb; source: E. coli TG1, periplasm, vector pSJF2, purified (Ni-NTA)
Take B9: in experiment [2], the Kd turned out to be 3180 nM, the koff was 0.0182 s⁻¹ and the kon amounted to 5710 M⁻¹ s⁻¹.

The values are drawn from article PMC4100105, “A Novel VHH Antibody Targeting the B Cell-Activating Factor for B-Cell Lymphoma” (International Journal of Molecular Sciences, 2014).
